Results from FireProtDB (doi:10.1021/bi00123a002).
“And” between values parts separate entries of the source, which are not always exact repeats. Equal entries are not always repeated.

B1: Tryptophan synthase alpha chain, P00929 (parent)
chain: MERYENLFAQLNDRREGAFVPFVTLGDPGIEQSLKIIDTLIDAGADALELGVPFSDPLADGPTIQNANLRAFAAGVTPAQCFEMLALIREKHPTIPIGLLMYANLVFNNGIDAFYARCEQVGVDSVLVADVPVEESAPFRQAALRHNIAPIFICPPNADDDLLRQVASYGRGYTYLLSRSGVTGAENRGALPLHHLIEKLKEYHAAPALQGFGISSPEQVSAAVRAGAAGAISGSAIVKIIEKNLASPKQMLAELRSFVSAMKAASRA

Variants of: B1
Details: Salmonella typhimurium (strain LT2 / SGSC1412 / ATCC 700720), pH 7.8, 25 °C, Urea, CD, Potassium phosphate 10 mM, reversible: yes, structure 2WSY, whole UniProt chain shown

Variant | ddG of mutation (higher = less stable) [kcal/mol] | unfolding free energy [kcal/mol] | ddG of mutation (higher = less stable) (transition: 3) [kcal/mol] | denaturant m value (transition: 3) | denaturant midpoint (higher = more stable) (transition: 3) | unfolding free energy (transition: 3)
MERYENLFAQLNDRREGAFVPVVTLGDPGIEQSLKIIDTLIDAGADALELGVPFSDPLADGPTIQNANLRAFAAGVTPAQCFEMLALIREKHPTIPIGLLMYANLVFNNGIDAFYARCEQVGVDSVLVADVPVEESAPFRQAALRHNIAPIFICPPNADDDLLRQVASYGRGYTYLLSRSGVTGAENRGALPLHHLIEKLKEYHAAPALQGFGISSPEQVSAAVRAGAAGAISGSAIVKIIEKNLASPKQMLAELRSFVSAMKAASRA [F22V] | 3.44 | 9.72 | -0.06 | 1.74 kcal/mol/M | 3.3 M | 5.87 kcal/mol
MERYENLFAQLNDRREGAFVPLVTLGDPGIEQSLKIIDTLIDAGADALELGVPFSDPLADGPTIQNANLRAFAAGVTPAQCFEMLALIREKHPTIPIGLLMYANLVFNNGIDAFYARCEQVGVDSVLVADVPVEESAPFRQAALRHNIAPIFICPPNADDDLLRQVASYGRGYTYLLSRSGVTGAENRGALPLHHLIEKLKEYHAAPALQGFGISSPEQVSAAVRAGAAGAISGSAIVKIIEKNLASPKQMLAELRSFVSAMKAASRA [F22L] | 1.05 | 12.1 |  | 2.96 kcal/mol/M and 1.7 kcal/mol/M | 2.1 M and 3.3 M | 6.38 kcal/mol and 5.73 kcal/mol
MERYENLFAQLNDRREGAFVPIVTLGDPGIEQSLKIIDTLIDAGADALELGVPFSDPLADGPTIQNANLRAFAAGVTPAQCFEMLALIREKHPTIPIGLLMYANLVFNNGIDAFYARCEQVGVDSVLVADVPVEESAPFRQAALRHNIAPIFICPPNADDDLLRQVASYGRGYTYLLSRSGVTGAENRGALPLHHLIEKLKEYHAAPALQGFGISSPEQVSAAVRAGAAGAISGSAIVKIIEKNLASPKQMLAELRSFVSAMKAASRA [F22I] | 4.58 | 8.58 |  | 1.57 kcal/mol/M and 1.51 kcal/mol/M | 2 M and 3.6 M | 3.16 kcal/mol and 5.43 kcal/mol
